Legend:
[1] = biological target: wild-type KSHV ORF74 expressed in HEK293T cells (Kaposi's Sarcoma-associated Herpesvirus (HHV-8)) (UniProt Q98146)
[2] = biological target: KSHV ORF74 with L169W, L258V and two C-terminal threonines deleted (apo construct) (Kaposi's Sarcoma-associated Herpesvirus (HHV-8)) (UniProt Q98146); assay: cryo-EM structure

Substance: Gαq subunit (Rluc8-fused, TRUPATH) (from UniProt P50148 1-359) (natural protein)
- BRET2 (TRUPATH) G protein activation in HEK293T cells, Rluc8-Gαq / Gβ / GFP2-Gγ sensor, dose response to recombinant CXCL1: potency of CXCL1 [1]: 6.7 pEC50

Substance: KSHV ORF74 with L169W, L258V and two C-terminal threonines deleted (apo construct) (from UniProt Q98146 1-340) (receptor)
- stoichiometry N [2]: 2

From paper PMC12462484
